Results from PMC7641749 (Nucleic Acids Research, 2020).
Values joined by “and” are separate entries in the source; they are usually repeats but may differ in a detail not shown here. Equal entries are not always repeated.

Target: human ERH (residues 1–104), His6-tagged (human, UniProt P84090 1-104)
Experiment: ITC

human ERH (residues 1–104), His6-tagged, sequence (P84090 whole entry, the tested form may be a part): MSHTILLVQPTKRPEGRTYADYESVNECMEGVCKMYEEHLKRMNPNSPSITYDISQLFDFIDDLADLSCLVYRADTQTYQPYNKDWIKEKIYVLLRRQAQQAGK

Kd: ~19.6 µM and ~19.7 µM
stoichiometry N: 0.965
B1: His6-SUMO tagged DGCR8^96–126 (peptide)
chain: PRTARHAPAVRKFSPDLKLLKDVKISVSFTE
